This passage reports anti-CD11b antibody binding in the presence of FH5-7 relative to without FH5-7 (1.0) (ratio of mean fluorescence) results from publication PMC6260146.

For the experiment, the target named is CR3 (CD11b/CD18) on peripheral blood monocytes (human (endogenous in peripheral blood monocytes)) (UniProt P11215). The experiment is described as follows: flow cytometry on cells; peripheral blood monocytes preincubated with unlabelled FH5-7 (14 μg/ml, 15 min on ice by the methods; 12 μg/ml, 30 min by the legend) or PBS, then a panel of FITC-, PE- or APC-labeled receptor specific antibodies, 45 min at 4°C; read-out: mean fluorescence of FH5-7 treated cells divided by PBS treated cells.

As to “recombinant fragment FH5-7 of Factor H (domain or fragment)”, the anti-CD11b antibody binding in the presence of FH5-7 relative to without FH5-7 (1.0) (ratio of mean fluorescence) is less than 0.8.
